Source: article PMC10023571, “EGOC inhibits TOROID polymerization by structurally activating TORC1” (Nature Structural & Molecular Biology, 2023)

B1: Kog1 (Kog1-TAP) in the TOROID (natural protein, S. cerevisiae)
chain: MPEIYGPQPLKPLNTVMRHGFEEQYQSDQLLQSLANDFIFYFDDKRHKTNGNPIPEEDKQRDVNRYYQPITDWKIMKDRQKTVSAALLLCLNLGVDPPDVMKTHPCARVEAWVDPLNFQDSKKAIEQIGKNLQAQYETLSLRTRYKQSLDPCVEDVKRFCNSLRRTSKEDRILFHYNGHGVPKPTKSGEIWVFNRGYTQYIPVSLYDLQTWLGAPCIFVYDCNSAENILINFQKFVQKRIKDDEEGNHDVAAPSPTSAYQDCFQLASCTSDELLLMSPELPADLFSCCLTCPIEISIRIFLMQSPLKDSKYKIFFENSTSNQPFGDSKNSFKSKIPNVNIPGMLSDRRTPLGELNWIFTAITDTIAWTSLPRPLFKKLFRHDLMIAALFRNFLLAKRIMPWYNCHPVSDPELPDSITTHPMWKSWDLAMDEVLTKIVIDLKNAPPATALESQMILQQQETLQNGGSSKSNAQDTKAGSIQTQSRFAVANLSTMSLVNNPALQSRKSISLQSSQQQLQQQQQQQQQFTGFFEQNLTAFELWLKYASNVRHPPEQLPIVLQVLLSQVHRIRALVLLSRFLDLGPWAVYLSLSIGIFPYVLKLLQSPAPELKPILVFIWARIMSIDYKNTQSELIKEKGYMYFVTVLVPDWGVNGMSATNGSAMINSGNPLTMTASQNINGPSSRYYERQQGNRTSNLGHNNLPFYHSNDTTDEQKAMAVFVLASFVRNFPLGQKNCFSLELVNKLCFYIDNSEIPLLRQWCVILLGLLFADNPLNRFVCMNTGAVEILLKSLKDPVPEVRTASIFALKHFISGFQDAEVILRLQQEFEEQYQQLHSQLQHLQNQSHLQQQQSQQQQQHLEQQQMKIEKQIRHCQVMQNQLEVIDLRKLKRQEIGNLISILPLINDGSSLVRKELVVYFSHIVSRYSNFFIVVVFNDLLEEIKLLEKSDINTRNTSDKYSVSQGSIFYTVWKSLLILAEDPFLENKELSKQVIDYILLELSAHKELGGPFAVMEKFLLKRSSKAHQTGKFGFNSSQVQFVKSSLRSFSPNERVDNNAFKKEQQQHDPKISHPMRTSLAKLFQSLGFSESNSDSDTQSSNTSMKSHTSKKGPSGLYLLNGNNNIYPTAETPRFRKHTEPLQLPLNSSFLDYSREYFQEPQMKKQEADEPGSVEYNARLWRRNRNETIIQETQGEKKLSIYGNWSKKLISLNNKSQPKLMKFAQFEDQLITADDRSTITVFDWEKGKTLSKFSNGTPFGTKVTDLKLINEDDSALLLTGSSDGVIKIYRDYQDVDTFKIVSAWRGLTDMLLTPRSTGLLTEWLQIRGSLLTTGDVKVIRVWDAHTETVEVDIPAKTSSLITSLTADQLAGNIFVAGFADGSLRVYDRRLDPRDSMIRRWRAGNDKQGVWINNVHLQRGGYRELVSGATNGVVELWDIRSEDPVESFVDQNVTSQYGSQQKPTTMTCMQVHEHAPIIATGTKQIKIWTTSGDLLNSFKNSHNNGVTSTLAATGIPKSLSYSSTSDAFLSSMAFHPHRMMIAATNSHDSIVNIYKCEDERIDYF
notes: Kog1, S. cerevisiae, expressed as KOG1-TAP; source: S. cerevisiae KOG1-TAP ∆tor1 cells grown PDS, purified as TOROID

How the values were obtained:
Assay in all cases: cryo-EM structure; TOROID filaments purified from KOG1-TAP ∆tor1 cells grown PDS (subunits co-purified from yeast); helical reconstruction, then signal subtraction and single particle analysis, 3.87 Å
Tor2 in the TOROID = biological target: T1, Tor2 in the TOROID (S. cerevisiae (endogenous in S. …, UniProt P32600 1-2474)); conditions: both partners purified
T1 construct: Tor2, S. cerevisiae; source: S. cerevisiae KOG1-TAP ∆tor1 cells grown PDS, purified as TOROID

[1] = biological target: B1; conditions: both partners purified
[2] = biological target: the molecule itself

T1 sequence (P32600 whole entry): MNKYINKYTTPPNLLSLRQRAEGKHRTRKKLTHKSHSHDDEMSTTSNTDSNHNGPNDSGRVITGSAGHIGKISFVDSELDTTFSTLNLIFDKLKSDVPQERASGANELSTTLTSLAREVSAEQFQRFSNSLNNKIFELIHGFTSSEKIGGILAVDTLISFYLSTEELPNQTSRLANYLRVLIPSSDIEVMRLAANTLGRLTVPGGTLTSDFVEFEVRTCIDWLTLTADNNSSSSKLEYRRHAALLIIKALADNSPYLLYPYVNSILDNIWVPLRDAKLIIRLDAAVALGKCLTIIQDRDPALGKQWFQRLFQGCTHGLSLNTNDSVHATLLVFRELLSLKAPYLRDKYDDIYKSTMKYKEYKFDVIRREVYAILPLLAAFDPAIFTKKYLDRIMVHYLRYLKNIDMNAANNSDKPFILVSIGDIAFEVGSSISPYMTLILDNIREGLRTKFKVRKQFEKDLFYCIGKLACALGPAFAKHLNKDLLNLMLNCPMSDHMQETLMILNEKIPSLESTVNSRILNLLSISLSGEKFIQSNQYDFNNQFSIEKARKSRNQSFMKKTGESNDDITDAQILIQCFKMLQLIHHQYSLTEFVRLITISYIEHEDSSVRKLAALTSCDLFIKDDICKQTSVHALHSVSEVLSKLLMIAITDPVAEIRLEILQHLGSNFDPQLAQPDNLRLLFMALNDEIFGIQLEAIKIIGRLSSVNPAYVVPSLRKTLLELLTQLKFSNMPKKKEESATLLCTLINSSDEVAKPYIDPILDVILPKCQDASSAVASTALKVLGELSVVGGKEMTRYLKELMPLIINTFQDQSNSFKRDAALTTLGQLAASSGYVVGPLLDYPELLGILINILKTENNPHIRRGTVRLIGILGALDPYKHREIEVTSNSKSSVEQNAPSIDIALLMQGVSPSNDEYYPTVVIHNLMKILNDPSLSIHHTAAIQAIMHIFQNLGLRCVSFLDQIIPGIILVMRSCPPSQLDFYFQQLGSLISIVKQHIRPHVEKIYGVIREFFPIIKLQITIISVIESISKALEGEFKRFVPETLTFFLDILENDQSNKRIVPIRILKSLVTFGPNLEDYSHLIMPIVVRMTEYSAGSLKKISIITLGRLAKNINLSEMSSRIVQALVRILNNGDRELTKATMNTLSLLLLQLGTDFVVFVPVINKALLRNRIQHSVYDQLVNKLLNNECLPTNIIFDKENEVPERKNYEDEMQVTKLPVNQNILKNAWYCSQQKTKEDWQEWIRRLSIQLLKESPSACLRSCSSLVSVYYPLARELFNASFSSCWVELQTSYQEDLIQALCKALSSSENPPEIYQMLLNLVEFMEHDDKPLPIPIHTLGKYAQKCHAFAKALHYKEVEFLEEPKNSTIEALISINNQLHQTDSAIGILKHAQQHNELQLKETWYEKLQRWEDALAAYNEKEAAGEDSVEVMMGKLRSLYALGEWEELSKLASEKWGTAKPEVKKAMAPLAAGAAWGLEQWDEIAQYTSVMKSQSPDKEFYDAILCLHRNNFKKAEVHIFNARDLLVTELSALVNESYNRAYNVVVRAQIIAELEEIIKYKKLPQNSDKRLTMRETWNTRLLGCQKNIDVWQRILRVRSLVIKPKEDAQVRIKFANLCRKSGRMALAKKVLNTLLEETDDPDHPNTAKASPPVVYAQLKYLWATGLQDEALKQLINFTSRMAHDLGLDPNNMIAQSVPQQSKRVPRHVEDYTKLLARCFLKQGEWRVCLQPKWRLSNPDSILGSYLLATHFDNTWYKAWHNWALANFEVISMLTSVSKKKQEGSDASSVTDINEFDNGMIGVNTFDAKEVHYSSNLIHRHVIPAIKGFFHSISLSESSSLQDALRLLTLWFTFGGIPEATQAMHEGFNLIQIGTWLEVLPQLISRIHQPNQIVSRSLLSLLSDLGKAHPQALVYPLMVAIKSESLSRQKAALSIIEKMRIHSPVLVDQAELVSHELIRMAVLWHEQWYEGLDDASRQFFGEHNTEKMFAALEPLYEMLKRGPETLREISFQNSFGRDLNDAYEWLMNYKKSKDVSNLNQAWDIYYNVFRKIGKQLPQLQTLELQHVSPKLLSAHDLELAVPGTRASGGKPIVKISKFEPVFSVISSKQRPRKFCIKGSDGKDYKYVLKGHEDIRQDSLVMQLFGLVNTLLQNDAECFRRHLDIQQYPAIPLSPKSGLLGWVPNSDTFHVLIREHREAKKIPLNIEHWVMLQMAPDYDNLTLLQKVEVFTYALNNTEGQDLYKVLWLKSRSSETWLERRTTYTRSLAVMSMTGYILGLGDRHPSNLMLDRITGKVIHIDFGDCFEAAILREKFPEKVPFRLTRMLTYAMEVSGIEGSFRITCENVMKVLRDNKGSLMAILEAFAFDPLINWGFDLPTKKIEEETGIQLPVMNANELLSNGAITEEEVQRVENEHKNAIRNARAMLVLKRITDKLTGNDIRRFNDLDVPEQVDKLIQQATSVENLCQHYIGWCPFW

Row | Binder | binding result (Tor2 in the TOROID) | binding result [1] | binding result [2]
1 | Lst8 in the TOROID (natural protein, UniProt P41318 1-303, looked up, Lst8, S. cerevisiae; source: S. cerevisiae KOG1-TAP ∆tor1 cells grown PDS, purified as TOROID) MSVILVSAGYDHTIRFWEALTGVCSRTIQHSDSQVNRLEITNDKKLLATAGHQNVRLYDIRTTNPNPVASFEGHRGNVTSVSFQQDNRWMVTSSEDGTIKVWDVRSPSIPRNYKHNAPVNEVVIHPNQGELISCDRDGNIRIWDLGENQCTHQLTPEDDTSLQSLSMASDGSMLAAANTKGNCYVWEMPNHTDASHLKPVTKFRAHSTYITRILLSSDVKHLATCSADHTARVWSIDDDFKLETTLDGHQRWVWDCAFSADSAYLVTASSDHYVRLWDLSTREIVRQYGGHHKGAVCVALNDV | binds | binds | –
2 | B1 | binds | – | binds
